From patent publication US20230174635A1

Target: BMP4/7 heterodimer (human) (UniProt P12644)
Experiment: cell-based or functional assay

Sequence of BMP4/7 heterodimer (human) (P12644 293-408, chain 1 of 2): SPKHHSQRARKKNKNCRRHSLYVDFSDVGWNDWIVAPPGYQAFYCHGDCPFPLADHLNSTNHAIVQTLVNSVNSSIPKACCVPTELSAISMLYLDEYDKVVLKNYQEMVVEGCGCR
Sequence of BMP4/7 heterodimer (human) (P18075 293-431, chain 2 of 2, further chain): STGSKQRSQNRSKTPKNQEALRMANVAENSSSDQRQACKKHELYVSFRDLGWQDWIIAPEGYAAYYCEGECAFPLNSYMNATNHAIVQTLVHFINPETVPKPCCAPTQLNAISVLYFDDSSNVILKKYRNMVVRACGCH

IC50 (geometric mean, N=2), inhibition of BMP4/7 signalling, Hek-Id1 reporter gene assay: 1.6 nM
Substance: Gremlin 1 Full length (from UniProt O60565 25-184) (ligand)
